Test results published in paper PMC8703697.

Tests used:
[1] = molecular target: human thrombin (FIIa) (human) (UniProt P00734)
[2] = molecular target: human thrombin (FIIa) (human) (UniProt P00734); remark: listed apart in the source
[3] = molecular target: human factor XIa (human) (UniProt P03951)
[4] = molecular target: human thrombin (FIIa) (human) (UniProt P00734); remark: listed apart in the source
[5] = molecular target: human factor XIIa (human) (UniProt P00748)
[6] = molecular target: human plasma Kallikrein (human) (UniProt P03952)
[7] = molecular target: human thrombin (FIIa) (human) (UniProt P00734); remark: listed apart in the source

Chain of UniProt P03952 (P03952 20-390, chain 1 of 2): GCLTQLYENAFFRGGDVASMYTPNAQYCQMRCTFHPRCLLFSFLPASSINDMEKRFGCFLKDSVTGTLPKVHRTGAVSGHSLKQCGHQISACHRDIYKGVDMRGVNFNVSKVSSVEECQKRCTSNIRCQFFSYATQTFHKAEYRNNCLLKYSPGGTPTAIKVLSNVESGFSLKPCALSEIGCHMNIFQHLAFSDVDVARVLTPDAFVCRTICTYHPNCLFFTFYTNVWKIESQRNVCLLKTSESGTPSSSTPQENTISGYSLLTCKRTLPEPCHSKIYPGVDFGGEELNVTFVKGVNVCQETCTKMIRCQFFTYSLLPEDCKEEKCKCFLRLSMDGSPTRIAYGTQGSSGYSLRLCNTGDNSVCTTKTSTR
Chain of UniProt P03952 (P03952 391-638, chain 2 of 2): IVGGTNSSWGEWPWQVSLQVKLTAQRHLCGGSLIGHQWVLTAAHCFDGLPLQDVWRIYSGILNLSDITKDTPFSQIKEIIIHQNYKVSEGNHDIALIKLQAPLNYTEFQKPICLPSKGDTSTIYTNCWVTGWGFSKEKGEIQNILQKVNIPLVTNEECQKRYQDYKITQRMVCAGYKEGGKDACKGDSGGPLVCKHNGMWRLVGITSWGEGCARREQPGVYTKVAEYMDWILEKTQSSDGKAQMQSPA
Chain of UniProt P00748 (P00748 20-372, chain 1 of 2): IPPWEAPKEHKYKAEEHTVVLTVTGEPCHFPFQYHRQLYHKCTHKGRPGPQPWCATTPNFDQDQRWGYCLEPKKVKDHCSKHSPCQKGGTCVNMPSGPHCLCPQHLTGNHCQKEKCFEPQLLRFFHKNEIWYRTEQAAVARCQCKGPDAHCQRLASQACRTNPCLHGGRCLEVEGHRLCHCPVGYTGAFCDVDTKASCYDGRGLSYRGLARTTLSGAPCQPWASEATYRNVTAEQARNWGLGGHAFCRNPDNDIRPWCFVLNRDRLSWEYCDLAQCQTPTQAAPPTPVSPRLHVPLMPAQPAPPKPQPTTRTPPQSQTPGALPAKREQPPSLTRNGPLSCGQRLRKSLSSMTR
Chain of UniProt P00748 (P00748 373-615, chain 2 of 2): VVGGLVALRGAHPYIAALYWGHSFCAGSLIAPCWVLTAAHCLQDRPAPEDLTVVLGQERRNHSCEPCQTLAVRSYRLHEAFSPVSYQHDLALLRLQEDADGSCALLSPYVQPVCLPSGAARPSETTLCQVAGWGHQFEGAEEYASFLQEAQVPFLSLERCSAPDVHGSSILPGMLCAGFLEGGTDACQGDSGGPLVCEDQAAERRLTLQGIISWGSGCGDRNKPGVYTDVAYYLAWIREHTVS
Chain of UniProt P03951 (P03951 19-387, chain 1 of 2): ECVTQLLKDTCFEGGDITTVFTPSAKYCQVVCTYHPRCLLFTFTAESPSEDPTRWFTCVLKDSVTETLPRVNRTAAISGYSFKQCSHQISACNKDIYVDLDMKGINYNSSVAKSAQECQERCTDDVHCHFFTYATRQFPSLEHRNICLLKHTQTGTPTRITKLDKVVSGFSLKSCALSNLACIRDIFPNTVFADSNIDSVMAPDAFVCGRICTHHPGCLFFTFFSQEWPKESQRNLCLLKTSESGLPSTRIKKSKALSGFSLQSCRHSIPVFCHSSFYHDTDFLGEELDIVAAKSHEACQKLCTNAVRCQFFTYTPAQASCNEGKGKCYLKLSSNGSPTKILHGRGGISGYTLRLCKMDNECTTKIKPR
Chain of UniProt P03951 (P03951 388-625, chain 2 of 2): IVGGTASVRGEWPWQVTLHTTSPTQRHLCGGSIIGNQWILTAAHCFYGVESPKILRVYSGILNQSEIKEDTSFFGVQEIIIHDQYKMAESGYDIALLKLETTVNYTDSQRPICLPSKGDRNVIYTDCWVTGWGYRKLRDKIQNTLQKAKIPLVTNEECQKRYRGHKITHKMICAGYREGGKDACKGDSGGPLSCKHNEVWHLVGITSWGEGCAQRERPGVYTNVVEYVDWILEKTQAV

“recombinant Dromaserpin (rDromaserpin) (natural protein)” was tested, and the reduction of thrombin-induced aggregation of washed human platelets; 10 µM rDromaserpin pre-incubated 10 min at 37 °C with thrombin [1] was 88.2%, the residual activity of thrombin (2U) on the chromogenic substrate S-2238 with rDromaserpin from 0.02 to 1 µM; IC50 [2] was 160 nM and the inhibition of FXIa (3.7 nM) activity (BIOPHEN kit) with 1 µM and 5 µM rDromaserpin (no effect at 1 µM, ~48% at 5 µM) [3] was 48%. The decrease of thrombin (2U) catalytic activity on S-2238 with 1 µM and 5 µM rDromaserpin (87% and 89%), 15 min pre-incubation at 37 °C [4] was 89%, the inhibition of FXIIa (15 nM) activity on S-2302 with 1 µM and 5 µM rDromaserpin (no effect at 1 µM, ~29% at 5 µM) [5] was 29% and the decrease of Kallikrein (10 nM) catalytic activity on S-2302 with 1 µM and 5 µM rDromaserpin (~30% and ~76%) [6] was 76%. For the same substance, the residual activity of thrombin (2U) with 0.2 µM rDromaserpin and heparin from 0 to 7.2 µM (48.11% without heparin, 12.5% at 2.4 µM heparin, less acceleration from 5.6 µM) [7] was 48.1%.
